Experiment [1] concerns the target AAV9 empty capsid (adeno-associated virus serotype 9 (AAV9)). Description: ELISA, 0.1 ug AAV9 coated on Maxisorp plate, scFv detected with HRP-labeled anti-His-Tag antibody, A450-A650; reference: blank (BSA).
Experiment [2] deals with AAV9 full capsid (adeno-associated virus serotype 9 (AAV9)). Kind of experiment: ELISA, 0.1 ug AAV9 coated on Maxisorp plate, scFv detected with HRP-labeled anti-His-Tag antibody, A450-A650; reference: AAV9 empty capsid sample. (An ELISA detects its analyte on a solid surface through an enzyme-linked reagent.)

B1: fourth anti-AAV-scFv [4] (scFv)
scFv: QSLEESGGDLVKPGASLTLTCTASGFSFSSSAYMCWVRQAPGKGLEWIGCMHTISSVDTYYASWAKGRFAISKASSTTVTLQMTSLTAADTATYFCARDDRNGYGYPYSFDIWGPGTLVTVTSGGGGSGGGGSGGGGSELDLTQTAASVEAAVGGTITIKCQASQTISSYLAWYQQKPGQPPKLLIYRASTLASGVSSRFKGSGSGTEYTLTISDLECADAATYYCLTYYGNSHNFGGGTEVVIKGSAAAGGGSEQKLISEEDLGGGSHHHHHH
On to B1, for which the IE/IB (ratio of ELISA absorbance for the empty capsid sample to that for the blank (BSA)) in experiment [1] amounted to 3.09. Moreover, the IF/IE (ratio of ELISA absorbance for the full capsid sample to that for the empty capsid sample) in experiment [2] worked out at 7.17.

B2: second anti-AAV-scFv [2] (scFv)
scFv: QSLEESGGDLVKPGASLTLTCTASGFSFSSNYWMFWVRQAPGKGLEWIAHIYGGSSGSTYYASWAKGRFTISKTSSTTVTLQMTSLTAADTATYFCATVDNGYSDLKLWGPGTLVTVTSGGGGSGGGGSGGGGSELVLTQTADSVEAGVGGTVTIKCQASQSIRNWLSWYQQKPGQPPKLLISRASTLASGVPSRFSGSGSGTEFTLTISDLECDDGATYYCQSSFYADSGEPAFGGGTEVDIKRSAAAGGGSEQKLISEEDLGGGSHHHHHH
Take B2: in experiment [2], the IF/IE (ratio of ELISA absorbance for the full capsid sample to that for the empty capsid sample) is 8.23.

B3: third anti-AAV-scFv [3] (scFv)
scFv: QSVEESGGDLVKPGASLTLTCTASGIDFSSGYDMCWVRQAPGKGLEWIGCIYTGGDSAWYASWAKGRFTISKTSSTTVTLQMTSLTGADTATYFCANDLDSGTVSIWGPGTLVTVTSGGGGSGGGGSGGGGSELVLTQTAASVSEPVGGTVTIKCQASQSISSWLSWYQQKPGQPPKLLIYQASKLASGVPSRFKGSGSGTQFTLTISDVVCDDAATYYCAGWTSSTTDGTAFGGGTEVVITGSAAAGGGSEQKLISEEDLGGGSHHHHHH
In the case of B3, in experiment [1], the IE/IB (ratio of ELISA absorbance for the empty capsid sample to that for the blank (BSA)) is 2.22. In addition, the IF/IE (ratio of ELISA absorbance for the full capsid sample to that for the empty capsid sample) in experiment [2] came to 6.11.

B4: first anti-AAV-scFv [1] (scFv)
scFv: QSLEESGGGLVKPGASLTLTCTASGFSFSSYGISWFRQAPGKGLEWIGTIYGGSSGSTYYASWAKGRFTISKTSSTTMTLQMASLTAADTATYFCARDRVGGNGYADLWGPGTLVTVTSGGGGSGGGGSGGGGSELVMTQTAASVEAAVGGTVTIKCQASQSISSYLAWYQQKPGQRPKLLIYRASTLASGVSSRFKGSGSGTEYTLTISDLECDDAATYYCQSHYDIRNYGVAFGGGTEVDIKRSAAAGGGSEQKLISEEDLGGGSHHHHHH
Turning to B4, the IE/IB (ratio of ELISA absorbance for the empty capsid sample to that for the blank (BSA)) in experiment [1] is 1.5. The IF/IE (ratio of ELISA absorbance for the full capsid sample to that for the empty capsid sample) in experiment [2] turned out to be 6.54.

The values are drawn from EP4806914A1.
